Assay results published in the supplement of paper PMC10567573.

B1: MATN2 (parent)
chain: TDDSYSCHCLKGFTLNPDKKTCRR
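Further: lentivirally expressed fusions sorted by FACS into six bins by GFP to DsRed ratio, PSI derived from sequencing read proportions per bin multiplied by bin number.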

Variants of: B1
Assay: protein stability index of a GFP-peptide fusion (GPS, HEK-293T) (PSI 1-6); higher = more stable
Conditions: c terminus: a fixed tail appended
With TDDSYSCHKLKGFTLNPDKKTCRR [C9K] the protein stability index was 4.03. Work on TDDSYSCHLLKGFTLNPDKKTCRR [C9L] yielded a protein stability index of 3.93. Variant TDDSYSCHMLKGFTLNPDKKTCRR [C9M] has a protein stability index of 3.96. TDDSYSCHNLKGFTLNPDKKTCRR [C9N] gave a protein stability index of 4.57. Variant TDDSYSCHPLKGFTLNPDKKTCRR [C9P] has a protein stability index of 4.53. Work on TDDSYSCHQLKGFTLNPDKKTCRR [C9Q] yielded a protein stability index of 4.1. For TDDSYSCHRLKGFTLNPDKKTCRR [C9R], the protein stability index was 3.88. With TDDSYSCHSLKGFTLNPDKKTCRR [C9S] the protein stability index was 4.48. TDDSYSCHTLKGFTLNPDKKTCRR [C9T] showed a protein stability index of 3.24. Variant TDDSYSCHVLKGFTLNPDKKTCRR [C9V] has a protein stability index of 3.73. For TDDSYSCHWLKGFTLNPDKKTCRR [C9W], the protein stability index was 3.79. With TDDSYSCHYLKGFTLNPDKKTCRR [C9Y] the protein stability index was 3.88. In the case of TDDSYSCHCAKGFTLNPDKKTCRR [L10A], the protein stability index is reported as 2.48. TDDSYSCHCCKGFTLNPDKKTCRR [L10C] showed a protein stability index of 3.11. For TDDSYSCHCDKGFTLNPDKKTCRR [L10D], the protein stability index was 3.55. In the case of TDDSYSCHCEKGFTLNPDKKTCRR [L10E], the protein stability index is reported as 2.22. Work on TDDSYSCHCFKGFTLNPDKKTCRR [L10F] yielded a protein stability index of 2.46. Work on TDDSYSCHCGKGFTLNPDKKTCRR [L10G] yielded a protein stability index of 2.91. Work on TDDSYSCHCHKGFTLNPDKKTCRR [L10H] yielded a protein stability index of 1.86. TDDSYSCHCIKGFTLNPDKKTCRR [L10I] gave a protein stability index of 2.15. For TDDSYSCHCKKGFTLNPDKKTCRR [L10K], the protein stability index was 2.63. In the case of TDDSYSCHCMKGFTLNPDKKTCRR [L10M], the protein stability index is reported as 1.9. In the case of TDDSYSCHCNKGFTLNPDKKTCRR [L10N], the protein stability index is reported as 3.04. TDDSYSCHCPKGFTLNPDKKTCRR [L10P] showed a protein stability index of 3.56. For TDDSYSCHCQKGFTLNPDKKTCRR [L10Q], the protein stability index was 1.77. In the case of TDDSYSCHCRKGFTLNPDKKTCRR [L10R], the protein stability index is reported as 1.65. Variant TDDSYSCHCSKGFTLNPDKKTCRR [L10S] has a protein stability index of 2.55. TDDSYSCHCTKGFTLNPDKKTCRR [L10T] showed a protein stability index of 1.93. For TDDSYSCHCVKGFTLNPDKKTCRR [L10V], the protein stability index was 1.72. With TDDSYSCHCWKGFTLNPDKKTCRR [L10W] the protein stability index was 2.98. TDDSYSCHCYKGFTLNPDKKTCRR [L10Y] showed a protein stability index of 2.32. For TDDSYSCHCLAGFTLNPDKKTCRR [K11A], the protein stability index was 2.27. Variant TDDSYSCHCLCGFTLNPDKKTCRR [K11C] has a protein stability index of 2.51. Variant TDDSYSCHCLDGFTLNPDKKTCRR [K11D] has a protein stability index of 2.44. Variant TDDSYSCHCLEGFTLNPDKKTCRR [K11E] has a protein stability index of 2.87. TDDSYSCHCLFGFTLNPDKKTCRR [K11F] gave a protein stability index of 2.27. TDDSYSCHCLGGFTLNPDKKTCRR [K11G] gave a protein stability index of 2.78. With TDDSYSCHCLHGFTLNPDKKTCRR [K11H] the protein stability index was 2.49. Work on TDDSYSCHCLIGFTLNPDKKTCRR [K11I] yielded a protein stability index of 2.08. With TDDSYSCHCLLGFTLNPDKKTCRR [K11L] the protein stability index was 2.04. With TDDSYSCHCLMGFTLNPDKKTCRR [K11M] the protein stability index was 1.61. Variant TDDSYSCHCLNGFTLNPDKKTCRR [K11N] has a protein stability index of 2.15. For TDDSYSCHCLPGFTLNPDKKTCRR [K11P], the protein stability index was 2.36. With TDDSYSCHCLQGFTLNPDKKTCRR [K11Q] the protein stability index was 1.83. In the case of TDDSYSCHCLRGFTLNPDKKTCRR [K11R], the protein stability index is reported as 2.04. Work on TDDSYSCHCLSGFTLNPDKKTCRR [K11S] yielded a protein stability index of 2.23. TDDSYSCHCLTGFTLNPDKKTCRR [K11T] gave a protein stability index of 1.96. For TDDSYSCHCLVGFTLNPDKKTCRR [K11V], the protein stability index was 2.06. TDDSYSCHCLWGFTLNPDKKTCRR [K11W] showed a protein stability index of 2.2. For TDDSYSCHCLYGFTLNPDKKTCRR [K11Y], the protein stability index was 2.4. TDDSYSCHCLKAFTLNPDKKTCRR [G12A] showed a protein stability index of 2.45. With TDDSYSCHCLKCFTLNPDKKTCRR [G12C] the protein stability index was 2.54. For TDDSYSCHCLKDFTLNPDKKTCRR [G12D], the protein stability index was 2.19. With TDDSYSCHCLKEFTLNPDKKTCRR [G12E] the protein stability index was 2.27. In the case of TDDSYSCHCLKFFTLNPDKKTCRR [G12F], the protein stability index is reported as 1.98. For TDDSYSCHCLKHFTLNPDKKTCRR [G12H], the protein stability index was 2.91. With TDDSYSCHCLKIFTLNPDKKTCRR [G12I] the protein stability index was 1.78. With TDDSYSCHCLKKFTLNPDKKTCRR [G12K] the protein stability index was 2.41. With TDDSYSCHCLKLFTLNPDKKTCRR [G12L] the protein stability index was 2.45. TDDSYSCHCLKMFTLNPDKKTCRR [G12M] showed a protein stability index of 1.9. TDDSYSCHCLKNFTLNPDKKTCRR [G12N] gave a protein stability index of 2.24. TDDSYSCHCLKPFTLNPDKKTCRR [G12P] showed a protein stability index of 2.63. Work on TDDSYSCHCLKQFTLNPDKKTCRR [G12Q] yielded a protein stability index of 2.85. TDDSYSCHCLKRFTLNPDKKTCRR [G12R] gave a protein stability index of 2.08. TDDSYSCHCLKSFTLNPDKKTCRR [G12S] showed a protein stability index of 2.1. Work on TDDSYSCHCLKTFTLNPDKKTCRR [G12T] yielded a protein stability index of 2.39. TDDSYSCHCLKVFTLNPDKKTCRR [G12V] showed a protein stability index of 1.79. TDDSYSCHCLKWFTLNPDKKTCRR [G12W] gave a protein stability index of 2.01. For TDDSYSCHCLKYFTLNPDKKTCRR [G12Y], the protein stability index was 1.73. For TDDSYSCHCLKGATLNPDKKTCRR [F13A], the protein stability index was 2.88. Work on TDDSYSCHCLKGCTLNPDKKTCRR [F13C] yielded a protein stability index of 2.39. For TDDSYSCHCLKGDTLNPDKKTCRR [F13D], the protein stability index was 2.27. With TDDSYSCHCLKGETLNPDKKTCRR [F13E] the protein stability index was 2.45. TDDSYSCHCLKGGTLNPDKKTCRR [F13G] gave a protein stability index of 2.88. In the case of TDDSYSCHCLKGHTLNPDKKTCRR [F13H], the protein stability index is reported as 1.98. TDDSYSCHCLKGITLNPDKKTCRR [F13I] gave a protein stability index of 2.05. In the case of TDDSYSCHCLKGKTLNPDKKTCRR [F13K], the protein stability index is reported as 2.55. TDDSYSCHCLKGLTLNPDKKTCRR [F13L] showed a protein stability index of 2.77. With TDDSYSCHCLKGMTLNPDKKTCRR [F13M] the protein stability index was 2.71. For TDDSYSCHCLKGNTLNPDKKTCRR [F13N], the protein stability index was 1.81. With TDDSYSCHCLKGPTLNPDKKTCRR [F13P] the protein stability index was 2.74. In the case of TDDSYSCHCLKGQTLNPDKKTCRR [F13Q], the protein stability index is reported as 2.02. TDDSYSCHCLKGRTLNPDKKTCRR [F13R] showed a protein stability index of 2.14. Work on TDDSYSCHCLKGSTLNPDKKTCRR [F13S] yielded a protein stability index of 2.21. In the case of TDDSYSCHCLKGTTLNPDKKTCRR [F13T], the protein stability index is reported as 2.3. With TDDSYSCHCLKGVTLNPDKKTCRR [F13V] the protein stability index was 2.21. TDDSYSCHCLKGWTLNPDKKTCRR [F13W] gave a protein stability index of 2.44. TDDSYSCHCLKGYTLNPDKKTCRR [F13Y] showed a protein stability index of 3.04. TDDSYSCHCLKGFALNPDKKTCRR [T14A] showed a protein stability index of 2.69. TDDSYSCHCLKGFCLNPDKKTCRR [T14C] gave a protein stability index of 2.31. For TDDSYSCHCLKGFDLNPDKKTCRR [T14D], the protein stability index was 2.14. For TDDSYSCHCLKGFELNPDKKTCRR [T14E], the protein stability index was 2.23. In the case of TDDSYSCHCLKGFFLNPDKKTCRR [T14F], the protein stability index is reported as 1.32. TDDSYSCHCLKGFGLNPDKKTCRR [T14G] gave a protein stability index of 2.24.
